# In patent US20190076400A1 (PROTAGONIST THERAPEUTICS, published 2019):
# Square brackets hold non-standard residues; d marks the D form. Dmt = Cc1cc(O)cc(C)c1C[C@H](N)C(=O)O; NMeY = CN[C@@H](Cc1ccc(O)cc1)C(=O)O; NMeCha = CN[C@@H](CC1CCCCC1)C(=O)O; NMeF = CN[C@@H](Cc1ccccc1)C(=O)O; NMeI = CC[C@H](C)[C@H](NC)C(=O)O; NMePhg = CN[C@H](C(=O)O)c1ccccc1; β3hF = N[C@H](CC(=O)O)Cc1ccccc1; NMeNle = CCCC[C@H](NC)C(=O)O; NMeNva = CCC[C@H](NC)C(=O)O; NMeV = CN[C@H](C(=O)O)C(C)C; NMeA = CN[C@@H](C)C(=O)O
# B1: H-DMT-(D)Thr-G-bhF-N(Me)-Ile-OH (peptide)
# peptide: H-[Dmt][dT]G[β3hF][NMeI]-OH
# SMILES: CC[C@H](C)[C@@H](C(=O)O)N(C)C(=O)C[C@H](Cc1ccccc1)NC(=O)CNC(=O)[C@H](NC(=O)[C@@H](N)Cc1c(C)cc(O)cc1C)[C@H](C)O
# B2: H-DMT-(D)Asp-G-bhF-Gly-NH2 (peptide)
# peptide: H-[Dmt][dD]G[β3hF]G-NH2
# SMILES: Cc1cc(O)cc(C)c1C[C@H](N)C(=O)N[C@H](CC(=O)O)C(=O)NCC(=O)N[C@H](CC(=O)NCC(N)=O)Cc1ccccc1
# B3: H-DMT-(D)Asp-G-bhF-N(Me)-Tyr-OH (peptide)
# peptide: H-[Dmt][dD]G[β3hF][NMeY]-OH
# SMILES: Cc1cc(O)cc(C)c1C[C@H](N)C(=O)N[C@H](CC(=O)O)C(=O)NCC(=O)N[C@H](CC(=O)N(C)[C@@H](Cc1ccc(O)cc1)C(=O)O)Cc1ccccc1
# B4: H-DMT-(D)Asp-G-bhF-N(Me)-Nva-OH (peptide)
# peptide: H-[Dmt][dD]G[β3hF][NMeNva]-OH
# SMILES: CCC[C@@H](C(=O)O)N(C)C(=O)C[C@H](Cc1ccccc1)NC(=O)CNC(=O)[C@@H](CC(=O)O)NC(=O)[C@@H](N)Cc1c(C)cc(O)cc1C
# B5: H-DMT-(D)Asp-G-bhF-N(Me)-Ile-OH (peptide)
# peptide: H-[Dmt][dD]G[β3hF][NMeI]-OH
# SMILES: CC[C@H](C)[C@@H](C(=O)O)N(C)C(=O)C[C@H](Cc1ccccc1)NC(=O)CNC(=O)[C@@H](CC(=O)O)NC(=O)[C@@H](N)Cc1c(C)cc(O)cc1C
# B6: H-DMT-(D)Asp-G-bhF-N(Me)-Phg-OH (peptide)
# peptide: H-[Dmt][dD]G[β3hF][NMePhg]-OH
# SMILES: Cc1cc(O)cc(C)c1C[C@H](N)C(=O)N[C@H](CC(=O)O)C(=O)NCC(=O)N[C@H](CC(=O)N(C)[C@H](C(=O)O)c1ccccc1)Cc1ccccc1
# B7: H-DMT-(D)Asp-G-bhF-N(Me)-Cha-OH (peptide)
# peptide: H-[Dmt][dD]G[β3hF][NMeCha]-OH
# SMILES: Cc1cc(O)cc(C)c1C[C@H](N)C(=O)N[C@H](CC(=O)O)C(=O)NCC(=O)N[C@H](CC(=O)N(C)[C@@H](CC1CCCCC1)C(=O)O)Cc1ccccc1
# B8: H-DMT-(D)Asp-G-bhF-N(Me)-Phe-OH (peptide)
# peptide: H-[Dmt][dD]G[β3hF][NMeF]-OH
# SMILES: Cc1cc(O)cc(C)c1C[C@H](N)C(=O)N[C@H](CC(=O)O)C(=O)NCC(=O)N[C@H](CC(=O)N(C)[C@@H](Cc1ccccc1)C(=O)O)Cc1ccccc1
# B9: H-DMT-(D)Asp-G-bhF-N(Me)-Val-OH (peptide)
# peptide: H-[Dmt][dD]G[β3hF][NMeV]-OH
# SMILES: Cc1cc(O)cc(C)c1C[C@H](N)C(=O)N[C@H](CC(=O)O)C(=O)NCC(=O)N[C@H](CC(=O)N(C)[C@H](C(=O)O)C(C)C)Cc1ccccc1
# B10: H-DMT-(D)Thr-G-bhF-N(Me)-Ala-OH (peptide)
# peptide: H-[Dmt][dT]G[β3hF][NMeA]-OH
# SMILES: Cc1cc(O)cc(C)c1C[C@H](N)C(=O)N[C@@H](C(=O)NCC(=O)N[C@H](CC(=O)N(C)[C@@H](C)C(=O)O)Cc1ccccc1)[C@H](C)O
# Target: µ-opioid receptor (MOR), Human-ORPM1 (human, UniProt P35372 1-400)
# Test: cell-based or functional assay
# µ-opioid receptor (MOR), Human-ORPM1, sequence (P35372 whole entry): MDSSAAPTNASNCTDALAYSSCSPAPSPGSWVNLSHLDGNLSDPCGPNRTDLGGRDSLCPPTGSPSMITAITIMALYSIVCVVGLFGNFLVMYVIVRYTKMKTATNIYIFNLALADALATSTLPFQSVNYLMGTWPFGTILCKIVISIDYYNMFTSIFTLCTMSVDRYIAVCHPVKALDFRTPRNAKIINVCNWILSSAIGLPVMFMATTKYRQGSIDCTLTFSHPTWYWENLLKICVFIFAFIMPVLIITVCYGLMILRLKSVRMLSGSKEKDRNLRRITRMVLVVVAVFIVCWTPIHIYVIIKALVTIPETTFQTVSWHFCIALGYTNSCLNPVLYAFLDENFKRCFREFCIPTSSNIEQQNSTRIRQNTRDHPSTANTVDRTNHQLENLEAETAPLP
row,Binder,MOR EC50
1,H-[Dmt][dD]G[β3hF][NMeNle]-OH [H-DMT-(D)Asp-G-bhF-N(Me)-Nle-OH],≤ 1 nM
2,B1,≤ 1 nM
3,B2,≤ 1 nM
4,B3,≤ 1 nM
5,B4,≤ 1 nM
6,B5,≤ 1 nM
7,B6,≤ 1 nM
8,B7,≤ 1 nM
9,B8,≤ 1 nM
10,B9,≤ 1 nM
11,B10,≤ 1 nM

# Target: δ-opioid receptor (DOR), Human-ORPD1 (human, UniProt P41143 1-372)
# Test: cell-based or functional assay
# δ-opioid receptor (DOR), Human-ORPD1, sequence (P41143 whole entry, stated change not applied): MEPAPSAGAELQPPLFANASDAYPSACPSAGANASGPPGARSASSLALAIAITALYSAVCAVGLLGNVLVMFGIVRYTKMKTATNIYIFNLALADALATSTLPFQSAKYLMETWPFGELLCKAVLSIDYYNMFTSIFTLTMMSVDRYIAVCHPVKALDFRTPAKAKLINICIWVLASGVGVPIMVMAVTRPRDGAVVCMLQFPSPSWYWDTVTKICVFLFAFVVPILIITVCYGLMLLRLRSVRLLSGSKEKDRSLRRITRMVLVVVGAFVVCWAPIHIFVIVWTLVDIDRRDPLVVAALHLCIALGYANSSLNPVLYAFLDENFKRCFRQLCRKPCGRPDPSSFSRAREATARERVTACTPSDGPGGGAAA
row,Binder,DOR EC50
1,H-[Dmt][dD]G[β3hF][NMeNle]-OH [H-DMT-(D)Asp-G-bhF-N(Me)-Nle-OH],≤ 1 nM
2,B1,≤ 1 nM
3,B2,≤ 1 nM
4,B3,≤ 1 nM
5,B4,≤ 1 nM
6,B5,≤ 1 nM
7,B6,≤ 1 nM
8,B7,≤ 1 nM
9,B8,≤ 1 nM
10,B9,≤ 1 nM
11,B10,≤ 1 nM
